Experiments:
[1] = molecular target: T1, NPP1 (Oryza sativa, UniProt Q0X0G2); assay: hydrolysis kinetics, […] substrate; type: biochemical; conditions: 37°C, optimal pH
T1 construct: recombinant, purified from transgenic rice cells (UNP1) overexpressing NPP1 cDNA; 70 kDa SDS-PAGE, 251 kDa gel filtration; gene on chromosome 8
T1 sequence (Q0X0G2 26-623): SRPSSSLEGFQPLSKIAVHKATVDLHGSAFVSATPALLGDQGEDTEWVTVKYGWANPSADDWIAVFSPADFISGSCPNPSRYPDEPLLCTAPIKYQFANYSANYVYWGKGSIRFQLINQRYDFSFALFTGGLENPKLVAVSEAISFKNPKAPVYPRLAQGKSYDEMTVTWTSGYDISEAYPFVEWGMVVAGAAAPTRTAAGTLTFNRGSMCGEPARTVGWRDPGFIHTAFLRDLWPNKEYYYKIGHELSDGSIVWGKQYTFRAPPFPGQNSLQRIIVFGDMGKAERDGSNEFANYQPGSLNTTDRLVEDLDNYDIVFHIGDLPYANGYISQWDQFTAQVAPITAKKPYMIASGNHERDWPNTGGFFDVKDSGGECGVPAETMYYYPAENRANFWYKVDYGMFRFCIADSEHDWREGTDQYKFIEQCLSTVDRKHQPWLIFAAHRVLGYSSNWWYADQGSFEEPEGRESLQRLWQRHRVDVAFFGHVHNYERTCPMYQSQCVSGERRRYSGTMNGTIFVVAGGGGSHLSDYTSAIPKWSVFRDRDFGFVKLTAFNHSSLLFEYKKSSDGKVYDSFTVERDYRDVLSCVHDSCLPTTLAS

[2] = substrate: O=[N+]([O-])c1ccc(OP(=O)(O)Oc2ccc([N+](=O)[O-])cc2)cc1; assay: purified protein; type: biochemical, Oryza sativa; conditions: 37°C, optimal pH
[3] = substrate: O=P(O)(O)OP(=O)(O)O; assay: purified protein; type: biochemical, Oryza sativa; conditions: 37°C, optimal pH
[4] = substrate: Nc1ncnc2c1ncn2[C@@H]1O[C@H](COP(=O)(O)OP(=O)(O)O[C@H]2O[C@H](CO)[C@@H](O)[C@H](O)[C@H]2O)[C@@H](O)[C@H]1O; assay: purified protein; type: biochemical, Oryza sativa; conditions: 37°C
[5] = substrate: Nc1ncnc2c1ncn2[C@@H]1O[C@H](COP(=O)(O)OP(=O)(O)O)[C@@H](O)[C@H]1O; assay: purified protein; type: biochemical, Oryza sativa; conditions: 37°C, no metal required
[6] = substrate: O=c1ccn([C@@H]2O[C@H](COP(=O)(O)OP(=O)(O)O)[C@@H](O)[C@H]2O)c(=O)[nH]1; assay: purified protein; conditions: 37°C, optimal pH
[7] = substrate: O=c1ccn([C@@H]2O[C@H](CO[P@@](=O)(O)O[P@@](=O)(O)O[C@H]3O[C@H](CO)[C@@H](O)[C@H](O)[C@H]3O)[C@@H](O)[C@H]2O)c(=O)[nH]1; assay: purified protein, by the assay type; set-up: steady-state hydrolysis kinetics of purified recombinant rice NPPs, substrate 0.1-10 mM, 37 °C, optimal pH
Text: (§1) To carry out substrate specificity and kinetic studies of NPP1, NPP2 and NPP6, in this work we produced transgenic rice cells ectopically expressing NPP1, NPP2 and NPP6 and purified the corresponding recombinant proteins as described in the Materials and Methods. Details of the processes for purification of recombinant proteins and quality of the final preparations are shown in Supplementary Table S2 and Supplementary Fig. S1A. […] Purification procedures of NPP1, NPP2 and NPP6 expressed in the transgenic rice cells (UNP1, UNP2 and UNP6, respectively) were essentially identical to those used in the earlier study ([Nanjo et al. 2006]). They are summarized in Supplementary Table S2. Rice callus cells (200 g) derived from the seed embryos of UNP1, UNP2 and UNP6 lines were homogenized in 5 vols. of 10 mM Tris–HCl (pH 8.8) and filtered through four layers of gauze. The homogenates were centrifuged at 20,000 × g for 10 min. The supernatants were then adjusted to acidic pH 5.4 with acetate buffer and centrifuged at 20,000 × g. After re-adjustment to pH 7.4 with 1.5 M Tris–HCl (pH 8.8) and further centrifugation at 20,000 × g, the resulting supernatants were applied to a Con A–Sepharose 4B column (ø 1.0 × 8 cm, Pharmacia) equilibrated with 40 mM Tris–HCl (pH 7.4), 0.5 M NaCl, 1 mM MnCl2 and 1 mM CaCl2, and eluted with 25 ml of 0.5 M α-methyl-D-mannopyranoside in 10 mM Tris–HCl (pH 7.4). The eluents were applied to a Q Sepharose HP column (ø 1.0 × 3 cm, Pharmacia) equilibrated with 10 mM Tris–HCl (pH 7.4) and eluted with 50 ml of a linear gradient of 0–0.5 M NaCl in 10 mM Tris–HCl (pH 7.4). Finally, the enzyme preparation was desalted by ultrafiltration on a Microcon YM-100 (Amicon).

[8] = substrate: Nc1nc2c(ncn2[C@@H]2O[C@H](COP(=O)(O)OP(=O)(O)O)[C@@H](O)[C@H]2O)c(=O)[nH]1; assay: purified protein; type: biochemical, Oryza sativa; conditions: 37°C, optimal pH
[9] = substrate: Nc1ccn([C@@H]2O[C@H](COP(=O)(O)OP(=O)(O)O)[C@@H](O)[C@H]2O)c(=O)n1; assay: purified protein; type: biochemical, Oryza sativa; conditions: 37°C, optimal pH
[10] = substrate: O=c1[nH]cnc2c1ncn2[C@@H]1O[C@H](COP(=O)(O)OP(=O)(O)O)[C@@H](O)[C@H]1O; assay: purified protein; type: biochemical, Oryza sativa; conditions: 37°C, optimal pH
[11] = substrate: NC(=O)c1ccc[n+]([C@@H]2O[C@H](COP(=O)(O)OP(=O)(O)OC[C@H]3O[C@@H](n4cnc5c(N)ncnc54)[C@H](O)[C@@H]3O)[C@@H](O)[C@H]2O)c1; assay: purified protein; type: biochemical, Oryza sativa; conditions: 37°C, optimal pH
[12] = substrate: NC(=O)c1ccc[n+]([C@@H]2O[C@H](COP(=O)([O-])OP(=O)(O)OC[C@H]3O[C@@H](n4cnc5c(N)ncnc54)[C@H](OP(=O)(O)O)[C@@H]3O)[C@@H](O)[C@H]2O)c1; assay: purified protein, by the assay type; set-up: steady-state hydrolysis kinetics of purified recombinant rice NPPs, substrate 0.1-10 mM, 37 °C, optimal pH
Text: as §1

[13] = optimal pH (pH 5.0 with ADP-glucose), pH 5.0
[14] = optimal pH (pH 4.0 with ADP), pH 4.0
[15] = optimal pH (pH 4.5 with ADP), pH 4.5
[16] = optimal pH (pH 6.0 with ADP-glucose), no metal required, pH 6.0

Molecule `Nc1ccn([C@@H]2O[C@H](COP(=O)(O)OP(=O)(O)O[C@H]3O[C@H](CO)[C@@H](O)[C@H](O)[C@H]3O)[C@@H](O)[C@H]2O)c(=O)n1` [CDP-glucose] has a Km [1] of 900 µM.

Molecule `Nc1ncnc2c1ncn2[C@@H]1O[C@H](COP(=O)(O)OP(=O)(O)OP(=O)(O)O)[C@@H](O)[C@H]1O` [ATP] has a Km [1] of 2100 µM.

`Nc1nc2c(ncn2[C@@H]2O[C@H](COP(=O)(O)OP(=O)(O)O[C@H]3O[C@H](CO)[C@@H](O)[C@H](O)[C@@H]3O)[C@@H](O)[C@H]2O)c(=O)[nH]1` [GDP-mannose] gave a Km [1] of 800 µM.

B1: NPP6 (Oryza sativa Japonica Group) (protein)
chain: GGGGGVWAFSSSSSSSSYSRIGEQPLSLIGIHRATVGIDAAASVQASPRLLGVKGEDTAWVTVDFAAPHASDGDWIGVFSPSNFNASTCPGPSGSDSGPVICSAPIKYQLANYSSDYGKTGKGTLKFQLINQRQDFSFALFTGGLSNPKLIAVSNKIAFANPKAPVYPRLAQGKSWNEMTVTWTSGYDIKEAYPFVEWGMKWSPPTRTAAGTVTFDRESLCGEPARTVGWRDPGFIHTAFLTDLWPNKEYYYKIGHMLPDGKIVWGKFYSFKAPPFPGQKSLQRVVIFGDMGKAERDGSNEYSNYQPGSLNTTDTLIKDLDNIDIVFHIGDITYANGYISQWDQFTQQVEPITARVPYMIASGNHERDWPNSGSFFNGTDSGGECGVLAETMYYTPTENRANYWYKTDYGMFRFCVADSEHDWREGTEQYAFIESCLATVDRKKQPWLVFIAHRVLGYSSGFFYGAGGAFAEPTARQSLQRLWQRHRVDLAFYGHVHNYERTCPVYDGRCASPERSRYSGAVGGTIHAVVGGGGSHLSNFTAEAPPWSVYREMDYGFVKLTAFNYTSLLYEYRRSSDGEVHDSFTVHREYRDVLACVADSCPPTIPPAT
notes: recombinant, purified from transgenic rice cells (UNP6); 74 kDa SDS-PAGE, 224 kDa gel filtration; gene on chromosome 9
Molecule B1 has a Km [2] of 3000 µM, a Vmax [2] of 250 µmol/min/mg and a kcat [2] of 308 s⁻¹. For the same molecule, the kcat/Km [2] was 103000 M⁻¹ s⁻¹, the Km [3] was 500 µM and the Vmax [3] was 64 µmol/min/mg. The kcat [3] was 79 s⁻¹, the kcat/Km [3] was 175000 M⁻¹ s⁻¹ and the Km [4, 13] was 700 µM. The Vmax [4, 13] was 105 µmol/min/mg, the kcat [4, 13] was 130 s⁻¹ and the kcat/Km [4, 13] was 193000 M⁻¹ s⁻¹. It also gave a Km [5, 14] of 300 µM, a Vmax [5, 14] of 68 µmol/min/mg and a kcat [5, 14] of 83 s⁻¹. It also gave a kcat/Km [5, 14] of 297000 M⁻¹ s⁻¹, a Km [6] of 500 µM and a Vmax [6] of 84 µmol/min/mg. The kcat [6] was 104 s⁻¹, the kcat/Km [6] was 203000 M⁻¹ s⁻¹ and the Km [7] was 1600 µM. It also gave a kcat [7] of 115 s⁻¹ and a kcat/Km [7] of 73000 M⁻¹ s⁻¹.

B2: NPP2 (Oryza sativa Japonica Group) (protein)
chain: RGDEQPLSRIAIERATVAAVDSASVKAQPTVLGLKGQSSDWVVVEFSHPKPSNDDWIGVFSPSGFSSEICQPEYYGDLPPYLCTSPIKFQYANFNNADYNRSGKGLLRLQLINQREDFSFALFSGGLSAPKLIAISNKVSFQNPKAPVYPRLAQGKSWNEMTVTWTSGYSIKEAIPFVEWGHKGGNQMLSPAGTLTFSRNSMCGSPARTVGWRDPGYIHTSFLKELWPDSLYTYRLGHRLLDGTHIWSKSYSFRASPYPGQDSVQRVVIFGDMGKAEIDGSDEYGNYEQASLYTTNQLIKELDSIDMVIHIGDLSYANGYLSQWDQFTQQIEPIASTVPYMIGSGNHERDWPGSGSFYGHNDSGGECGVPTQTMFYVPAENRAKLWYSTDYGMFRFCIADTEQDWRPGTEQYKFIEQCLSSVDRSKQPWLIFLAHRVLGYSSASWYEIMMGSYGEPMGRDGLEELWQKYKVDLAVFGHIHSYERTCPIYQNRCVQDGSNLYTGQFNATTHVIVGGGGAMLSPFRATVPYWSFFRDYDFGFSKLTALNHSTLLFEYKKSRDGKVYDHFTISRDYRDIMACSIDNCPRTTLAV
notes: recombinant, purified from transgenic rice cells (UNP2); 71 kDa SDS-PAGE, 374 kDa gel filtration; gene on chromosome 12
In the case of B2, the Km [2] is reported as 2600 µM, the Vmax [2] is reported as 60 µmol/min/mg and the kcat [2] is reported as 71 s⁻¹. It also gave a kcat/Km [2] of 27000 M⁻¹ s⁻¹, a Km [8] of 900 µM and a Vmax [8] of 24 µmol/min/mg. The kcat [8] was 28 s⁻¹, the kcat/Km [8] was 32000 M⁻¹ s⁻¹ and the Km [9] was 1900 µM. It also gave a Vmax [9] of 76 µmol/min/mg, a kcat [9] of 89 s⁻¹ and a kcat/Km [9] of 47000 M⁻¹ s⁻¹. For the same molecule, the Km [10] was 2200 µM, the Vmax [10] was 75 µmol/min/mg and the kcat [10] was 88 s⁻¹. The kcat/Km [10] was 40000 M⁻¹ s⁻¹, the Km [5, 15] was 1100 µM and the kcat [5, 15] was 80 s⁻¹. For the same molecule, the kcat/Km [5, 15] was 73000 M⁻¹ s⁻¹, the Km [6] was 1200 µM and the Vmax [6] was 85 µmol/min/mg. The kcat [6] was 101 s⁻¹ and the kcat/Km [6] was 84000 M⁻¹ s⁻¹.

B3: NPP1 (Oryza sativa Japonica Group) (protein)
chain: SRPSSSLEGFQPLSKIAVHKATVDLHGSAFVSATPALLGDQGEDTEWVTVKYGWANPSADDWIAVFSPADFISGSCPNPSRYPDEPLLCTAPIKYQFANYSANYVYWGKGSIRFQLINQRYDFSFALFTGGLENPKLVAVSEAISFKNPKAPVYPRLAQGKSYDEMTVTWTSGYDISEAYPFVEWGMVVAGAAAPTRTAAGTLTFNRGSMCGEPARTVGWRDPGFIHTAFLRDLWPNKEYYYKIGHELSDGSIVWGKQYTFRAPPFPGQNSLQRIIVFGDMGKAERDGSNEFANYQPGSLNTTDRLVEDLDNYDIVFHIGDLPYANGYISQWDQFTAQVAPITAKKPYMIASGNHERDWPNTGGFFDVKDSGGECGVPAETMYYYPAENRANFWYKVDYGMFRFCIADSEHDWREGTDQYKFIEQCLSTVDRKHQPWLIFAAHRVLGYSSNWWYADQGSFEEPEGRESLQRLWQRHRVDVAFFGHVHNYERTCPMYQSQCVSGERRRYSGTMNGTIFVVAGGGGSHLSDYTSAIPKWSVFRDRDFGFVKLTAFNHSSLLFEYKKSSDGKVYDSFTVERDYRDVLSCVHDSCLPTTLAS
notes: recombinant, purified from transgenic rice cells (UNP1) overexpressing NPP1 cDNA; 70 kDa SDS-PAGE, 251 kDa gel filtration; gene on chromosome 8
For B3, the Km [11] was 800 µM, the Vmax [11] was 93 µmol/min/mg and the kcat [11] was 109 s⁻¹. For the same molecule, the kcat/Km [11] was 133000 M⁻¹ s⁻¹, the Km [4, 16] was 800 µM and the Vmax [4, 16] was 183 µmol/min/mg. For the same molecule, the kcat [4, 16] was 214 s⁻¹, the kcat/Km [4, 16] was 250000 M⁻¹ s⁻¹ and the Km [12] was 1600 µM. For the same molecule, the Vmax [12] was 121 µmol/min/mg, the kcat [12] was 141 s⁻¹ and the kcat/Km [12] was 85000 M⁻¹ s⁻¹.

— PMC3913438, “Nucleotide Pyrophosphatase/Phosphodiesterase 1 Exerts a Negative Effect on Starch Accumulation and Growth in Rice Seedlings under High Temperature and CO2 Concentration Conditions” (Plant and Cell Physiology, 2013)
